Sequences and labels used below:
B2: MatPΔ18C (printed MatPA18C; 1-132) (domain or fragment, E. coli, UniProt P0A8N0 1-132, looked up)
chain: MKYQQLENLESGWKWKYLVKKHREGELITRYIEASAAQEAVDVLLSLENEPVLVNGWIDKHMNPELVNRMKQTIRARRKRHFNAEHQHTRKKSIDLEFIVWQRLAGLAQRRGKTLSETIVQLIEDAENKEKY

The data set “native MS” concerns the molecule itself. Briefly: native MS.
Data set [1] concerns the target B2. Briefly: native MS.
Data set [2] has as its target T1, MukB long hinge (LH, 568-863) (E. coli, UniProt P22523 568-863).
T1 sequence (looked up): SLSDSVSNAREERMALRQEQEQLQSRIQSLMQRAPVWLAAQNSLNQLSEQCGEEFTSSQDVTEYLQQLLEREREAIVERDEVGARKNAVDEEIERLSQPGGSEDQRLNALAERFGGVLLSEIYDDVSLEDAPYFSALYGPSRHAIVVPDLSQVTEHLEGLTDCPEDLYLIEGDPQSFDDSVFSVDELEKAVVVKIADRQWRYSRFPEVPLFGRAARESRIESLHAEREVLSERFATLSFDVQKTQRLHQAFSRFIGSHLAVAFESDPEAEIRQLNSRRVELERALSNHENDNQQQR
Briefly: ITC.

For data set [3], the target named is T1, MukB long hinge (LH, 568-863). Put plainly: native MS.
Data set [4] concerns the target T2, MukB, full length, wild type (E. coli, UniProt P22523 1-1486).
T2 sequence (looked up): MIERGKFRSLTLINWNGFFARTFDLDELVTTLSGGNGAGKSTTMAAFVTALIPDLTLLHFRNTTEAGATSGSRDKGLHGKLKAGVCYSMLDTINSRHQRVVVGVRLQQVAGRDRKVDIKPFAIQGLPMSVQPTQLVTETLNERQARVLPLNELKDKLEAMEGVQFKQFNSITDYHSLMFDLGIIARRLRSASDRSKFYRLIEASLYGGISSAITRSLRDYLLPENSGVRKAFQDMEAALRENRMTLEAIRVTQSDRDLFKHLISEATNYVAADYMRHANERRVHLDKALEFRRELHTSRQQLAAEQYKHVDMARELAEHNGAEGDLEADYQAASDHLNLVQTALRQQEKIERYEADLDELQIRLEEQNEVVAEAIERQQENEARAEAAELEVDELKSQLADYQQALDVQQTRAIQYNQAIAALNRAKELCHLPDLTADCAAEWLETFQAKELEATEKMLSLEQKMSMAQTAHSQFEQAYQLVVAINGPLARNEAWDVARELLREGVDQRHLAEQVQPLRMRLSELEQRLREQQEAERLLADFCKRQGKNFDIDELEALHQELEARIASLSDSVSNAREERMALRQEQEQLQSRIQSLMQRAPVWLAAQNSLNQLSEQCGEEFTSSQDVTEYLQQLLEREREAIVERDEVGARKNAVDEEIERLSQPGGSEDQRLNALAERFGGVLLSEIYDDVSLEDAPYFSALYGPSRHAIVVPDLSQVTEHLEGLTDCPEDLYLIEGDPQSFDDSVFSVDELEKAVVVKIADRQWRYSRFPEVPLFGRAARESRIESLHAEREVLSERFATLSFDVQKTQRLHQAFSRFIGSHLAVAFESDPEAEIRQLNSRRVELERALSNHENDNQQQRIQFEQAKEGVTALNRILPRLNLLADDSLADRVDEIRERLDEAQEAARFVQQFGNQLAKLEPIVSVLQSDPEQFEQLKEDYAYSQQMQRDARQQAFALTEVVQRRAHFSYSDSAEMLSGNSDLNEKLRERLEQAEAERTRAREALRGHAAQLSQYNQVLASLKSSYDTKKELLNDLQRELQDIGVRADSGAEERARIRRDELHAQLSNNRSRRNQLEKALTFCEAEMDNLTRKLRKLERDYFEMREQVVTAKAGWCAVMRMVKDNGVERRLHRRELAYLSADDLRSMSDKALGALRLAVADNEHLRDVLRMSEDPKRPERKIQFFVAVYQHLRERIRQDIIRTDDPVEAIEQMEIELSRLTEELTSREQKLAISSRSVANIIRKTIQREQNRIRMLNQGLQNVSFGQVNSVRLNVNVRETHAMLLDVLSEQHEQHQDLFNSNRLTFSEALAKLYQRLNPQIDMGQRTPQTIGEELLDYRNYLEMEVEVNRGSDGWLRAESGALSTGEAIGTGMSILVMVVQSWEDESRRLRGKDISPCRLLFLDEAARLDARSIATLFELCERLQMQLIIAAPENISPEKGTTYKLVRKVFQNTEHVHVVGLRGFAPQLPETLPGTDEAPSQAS
Briefly: fluorescence correlation spectroscopy.

For data set [5], the target named is T3, MukB^KKK (full length MukB D697K D745K E753K) (E. coli, UniProt P22523 1-1486, D697K | D745K | E753K).
T3 sequence (looked up): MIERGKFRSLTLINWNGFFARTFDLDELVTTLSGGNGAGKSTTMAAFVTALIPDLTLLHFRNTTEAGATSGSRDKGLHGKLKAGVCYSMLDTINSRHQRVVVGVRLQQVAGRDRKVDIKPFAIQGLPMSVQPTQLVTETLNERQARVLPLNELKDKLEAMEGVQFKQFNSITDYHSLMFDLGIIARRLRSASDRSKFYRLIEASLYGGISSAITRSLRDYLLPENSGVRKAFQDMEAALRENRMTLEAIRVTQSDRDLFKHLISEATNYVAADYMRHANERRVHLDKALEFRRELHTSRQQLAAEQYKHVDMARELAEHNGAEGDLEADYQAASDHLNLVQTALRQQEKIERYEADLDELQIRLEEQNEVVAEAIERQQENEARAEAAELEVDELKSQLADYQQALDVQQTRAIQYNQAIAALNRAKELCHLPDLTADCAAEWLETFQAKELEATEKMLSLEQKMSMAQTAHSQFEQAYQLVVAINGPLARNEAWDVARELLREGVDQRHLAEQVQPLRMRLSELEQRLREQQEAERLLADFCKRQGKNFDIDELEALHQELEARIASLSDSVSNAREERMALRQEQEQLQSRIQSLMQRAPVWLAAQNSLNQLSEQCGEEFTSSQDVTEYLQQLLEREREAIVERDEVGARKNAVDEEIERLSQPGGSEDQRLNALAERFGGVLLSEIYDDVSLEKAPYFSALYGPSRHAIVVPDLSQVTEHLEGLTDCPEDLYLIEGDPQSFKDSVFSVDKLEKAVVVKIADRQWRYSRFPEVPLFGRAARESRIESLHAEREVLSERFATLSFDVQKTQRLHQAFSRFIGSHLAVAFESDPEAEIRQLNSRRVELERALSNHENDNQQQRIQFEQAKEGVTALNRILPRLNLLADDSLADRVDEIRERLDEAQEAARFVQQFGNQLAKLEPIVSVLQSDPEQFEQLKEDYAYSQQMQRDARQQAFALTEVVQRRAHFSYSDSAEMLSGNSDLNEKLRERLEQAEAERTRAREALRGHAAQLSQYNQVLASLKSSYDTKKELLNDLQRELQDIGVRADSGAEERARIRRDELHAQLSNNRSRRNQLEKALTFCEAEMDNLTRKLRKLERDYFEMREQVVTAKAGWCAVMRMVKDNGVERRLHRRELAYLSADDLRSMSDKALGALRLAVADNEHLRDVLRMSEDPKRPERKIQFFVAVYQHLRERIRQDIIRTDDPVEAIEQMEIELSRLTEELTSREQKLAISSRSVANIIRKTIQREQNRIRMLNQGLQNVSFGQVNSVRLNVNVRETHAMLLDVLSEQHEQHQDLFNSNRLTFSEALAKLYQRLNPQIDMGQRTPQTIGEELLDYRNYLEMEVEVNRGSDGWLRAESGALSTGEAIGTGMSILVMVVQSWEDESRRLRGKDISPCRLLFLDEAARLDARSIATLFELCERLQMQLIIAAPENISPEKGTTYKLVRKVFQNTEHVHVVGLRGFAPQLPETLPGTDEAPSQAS
Put plainly: fluorescence correlation spectroscopy.

From doi:10.1101/2021.03.03.433707 (bioRxiv, 2021) come the findings set out here.

A word on the stoichiometry N: it is a count of units in the complex or per binding partner. The term Kd denotes a measure of binding affinity in units of concentration. A lower Kd goes with tighter binding.

B1: MukB short hinge (SH, 667-779) (domain or fragment, E. coli, UniProt P22523 667-779, looked up)
chain: GGSEDQRLNALAERFGGVLLSEIYDDVSLEDAPYFSALYGPSRHAIVVPDLSQVTEHLEGLTDCPEDLYLIEGDPQSFDDSVFSVDELEKAVVVKIADRQWRYSRFPEVPLFG
As for B1, in “native MS”, the “stoichiometry N” value came out at 2. Besides, the binding result in data set [1] is given as “binds”.

B2: in data set [2], the affinity, expressed as Kd, was 590 nM; the dH is -16.8 kcal/mol; the “stoichiometry N” value turned out to be 0.96. Besides, the “stoichiometry N” value in data set [3] was 1 MatP dimer per LH dimer.

B3: MatP-Cys-His labelled with Cy3B (MatP-Cy3B) (domain or fragment, E. coli, UniProt P0A8N0 1-132, looked up)
chain: MKYQQLENLESGWKWKYLVKKHREGELITRYIEASAAQEAVDVLLSLENEPVLVNGWIDKHMNPELVNRMKQTIRARRKRHFNAEHQHTRKKSIDLEFIVWQRLAGLAQRRGKTLSETIVQLIEDAENKEKY
modifications: Cy3B maleimide on a single cysteine engineered into the linker between MatP and its 6xHis-tag
Consider B3, for which the Kd in data set [4] is approximately 250 nM; in data set [5], approximately 1600 nM.
